According to US20260242478A1 (published 2026):
Where no end group is shown, it is not given here.

Key:
[1] = biological target: T1, Anti-CD28 Fab (SEQ ID NOs: 696, 697); assay: phage binding ELISA; biotinylated anti-CD28 Fab on neutravidin plate, bound phage detected with anti-M13-HRP;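 further: clonal phage tested as crude supernatants, given a short incubation in the Fab-captured wells before bound phage were read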
T1 construct: In the phage ELISA the Fab was biotinylated and captured on neutravidin coated plates
T1 sequence (VH, as listed by the source, chain 1 of 2): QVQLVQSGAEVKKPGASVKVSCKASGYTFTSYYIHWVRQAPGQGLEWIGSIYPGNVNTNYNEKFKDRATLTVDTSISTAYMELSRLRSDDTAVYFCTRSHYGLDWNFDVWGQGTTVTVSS
T1 sequence (VL, as listed by the source, chain 2 of 2): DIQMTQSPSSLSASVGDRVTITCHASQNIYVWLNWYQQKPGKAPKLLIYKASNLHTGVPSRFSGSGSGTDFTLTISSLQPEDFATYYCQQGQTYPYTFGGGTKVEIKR
Description: (§1) Clonal phage were harvested as crude supematants and screened via standard ELISAs. […] Prior to the addition of clonal phage, wells were incubated with blocking buffer and CD28 antigen or blocking buffer alone. Without washing or aspirating, clonal phage supematants were then added to the wells and incubated for a short time. Wells were then washed followed by detection of bound phage using a horse radish conjugated anti-M13 antibody. Clonal phage of interest were then sent for sequence analysis.

[2] = biological target: T1, Anti-CD28 Fab (SEQ ID NOs: 696, 697); assay: phage binding ELISA on captured anti-CD28 Fab, wells pre-incubated with CD28 antigen as competitor
Description: as §1

[3] = biological target: T2, Anti-CD28 Fab (SEQ ID NOs: 696, 697); assay: phage binding ELISA; Fab-coated wells pre-incubated with CD28 antigen as competitor;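 further: clonal phage supernatants added to wells preincubated with CD28 antigen or blocking buffer only, bound phage detected with HRP-conjugated anti-M13 antibody, buffer-only wells as control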
T2 construct: In the phage ELISA the Fab was biotinylated and captured on neutravidin coated plates
T2 sequence (VH, as listed by the source, chain 1 of 2): as the sequence (VH, as listed by the source, chain 1 of 2) above
T2 sequence (VL, as listed by the source, chain 2 of 2): as the sequence (VL, as listed by the source, chain 2 of 2) above
Description: (§2) Clonal phage were harvested as crude supematants and screened via standard ELISAs. […] Prior to the addition of clonal phage, wells were incubated with blocking buffer and CD28 antigen or blocking buffer alone. Without washing or aspirating, clonal phage supematants were then added to the wells and incubated for a short time. Wells were then washed followed by detection of bound phage using a horse radish conjugated anti-M13 antibody.

[4] = biological target: T2, Anti-CD28 Fab (SEQ ID NOs: 696, 697); assay: phage binding ELISA; biotinylated anti-CD28 Fab on neutravidin plate, bound phage detected with anti-M13 HRP
Description: as §2

[5] = biological target: T3, Anti-CD28 Fab (SEQ ID NOs: 696, 697); assay: phage ELISA; captured anti-CD28 Fab pre-incubated with CD28 antigen as competitor, anti-M13-HRP
T3 construct: In the phage ELISA the Fab was biotinylated and captured on neutravidin coated plates
T3 sequence (VH, as listed by the source, chain 1 of 2): as the sequence (VH, as listed by the source, chain 1 of 2) above
T3 sequence (VL, as listed by the source, chain 2 of 2): as the sequence (VL, as listed by the source, chain 2 of 2) above
Description: as §2

[6] = biological target: T3, Anti-CD28 Fab (SEQ ID NOs: 696, 697); assay: phage ELISA; biotinylated anti-CD28 Fab on neutravidin plate, clonal phage detected with anti-M13-HRP
Description: as §2

Binder	Anti-CD28 Fab signal in the presence of CD28 [3]	Anti-CD28 Fab (SEQ ID NOs: 696, 697) signal [4]	Phage binding ELISA, Anti-CD28 Fab signal in the presence of CD28 [5]	Phage binding ELISA, Anti-CD28 Fab signal [6]	further results
TCAAGASYPWPACL (Tested as clonal phage supernatant; not shown: fused to the pIII filament of the bacteriophage) [Phage-1445 (peptide-92 library clone, SEQ ID NO: 1741)]					Anti-CD28 Fab signal (phage binding ELISA) [1]: 1.89; Anti-CD28 Fab signal in the presence of CD28 (phage binding ELISA) [2]: 0.09
LCNAGAMYKWPTCL (Tested as clonal phage supernatant; not shown: fused to the pIII filament of the bacteriophage) [Phage-1434 (peptide-92 library clone, SEQ ID NO: 1730)]					Anti-CD28 Fab signal (phage binding ELISA) [1]: 1.94; Anti-CD28 Fab signal in the presence of CD28 (phage binding ELISA) [2]: 0.06
TCAAGASFPWPWCL (peptide, not shown: large carriers, cysteine pairing not given here; also: fused to phage pIII protein, pIII and linker not given here, Clonal phage of the Peptide-92 optimisation library, tested as crude phage supernatant) [Phage-1476]	0.06	1.75			
LCKPGVPYQWPTCF (tested as crude clonal phage supernatant) [Phage-1456 peptide (SEQ ID NO: 1752)]			0.05	1.82	
MCAAGAMYAWPTCL (peptide, not shown: large carriers, cysteine pairing not given here; also: fused to phage pIII protein, pIII and linker not given here, Clonal phage of the Peptide-92 optimisation library, tested as crude phage supernatant) [Phage-1475]	0.09	1.75			
TCRAGATYNWPFCL (Tested as clonal phage supernatant; not shown: fused to the pIII filament of the bacteriophage) [Phage-1443 (peptide-92 library clone, SEQ ID NO: 1739)]					Anti-CD28 Fab signal (phage binding ELISA) [1]: 1.9; Anti-CD28 Fab signal in the presence of CD28 (phage binding ELISA) [2]: 0.07
TCSAGAYYAWPVCL (tested as crude clonal phage supernatant) [Phage-1451 peptide (SEQ ID NO: 1747)]			0.08	1.84	
TCSAGATYSWPQCL (tested as crude clonal phage supernatant) [Phage-1450 peptide (SEQ ID NO: 1746)]			0.07	1.84	
TCSAGATYIWPMCF (Tested as clonal phage supernatant; not shown: fused to the pIII filament of the bacteriophage) [Phage-1442 (peptide-92 library clone, SEQ ID NO: 1738)]					Anti-CD28 Fab signal (phage binding ELISA) [1]: 1.9; Anti-CD28 Fab signal in the presence of CD28 (phage binding ELISA) [2]: 0.08
LCEEFFHYSWPVCL (peptide, not shown: large carriers, cysteine pairing not given here; also: displayed as fusion to phage pIII, pIII and linker not given here, Clonal phage of the Peptide-92 optimisation library, tested as crude phage supernatant) [Phage-1481]	0.06	1.74			
GCAAGFHYPWPLCL (peptide, not shown: large carriers, cysteine pairing not given here; also: displayed as fusion to phage pIII, pIII and linker not given here, Clonal phage of the Peptide-92 optimisation library, tested as crude phage supernatant) [Phage-1480]	0.08	1.74			
PCSAGATYAWLYCV (tested as crude clonal phage supernatant) [Phage-1458 peptide (SEQ ID NO: 1754)]			0.06	1.81	
TCAAGAYWTWPACF (Tested as clonal phage supernatant; not shown: fused to the pIII filament of the bacteriophage) [Phage-1437 (peptide-92 library clone, SEQ ID NO: 1733)]					Anti-CD28 Fab signal (phage binding ELISA) [1]: 1.93; Anti-CD28 Fab signal in the presence of CD28 (phage binding ELISA) [2]: 0.09
MCSAGAMYPWPLCL (Tested as clonal phage supernatant; not shown: fused to the pIII filament of the bacteriophage) [Phage-1435 (peptide-92 library clone, SEQ ID NO: 1731)]					Anti-CD28 Fab signal (phage binding ELISA) [1]: 1.93; Anti-CD28 Fab signal in the presence of CD28 (phage binding ELISA) [2]: 0.07
SCAAVFPYPWPPCF (peptide, not shown: large carriers, cysteine pairing not given here; also: fused to phage pIII protein, pIII and linker not given here, Clonal phage of the Peptide-92 optimisation library, tested as crude phage supernatant) [Phage-1477]	0.06	1.75			
RCRAGFSYNWPYCM (peptide, not shown: large carriers, Clonal phage of the Peptide-92 optimisation library, tested as crude phage supernatant) [Phage-1488]	0.06	1.72			
TCSAGATWPWPICL (Tested as clonal phage supernatant; not shown: fused to the pIII filament of the bacteriophage) [Phage-1444 (peptide-92 library clone, SEQ ID NO: 1740)]					Anti-CD28 Fab signal (phage binding ELISA) [1]: 1.89; Anti-CD28 Fab signal in the presence of CD28 (phage binding ELISA) [2]: 0.08
TCAAGAHYAWPECF (peptide, not shown: large carriers, Clonal phage of the Peptide-92 optimisation library, tested as crude phage supernatant) [Phage-1487]	0.06	1.72			
TCSAGAGYPWPLCY (Tested as clonal phage supernatant; not shown: fused to the pIII filament of the bacteriophage) [Phage-1438 (peptide-92 library clone, SEQ ID NO: 1734)]					Anti-CD28 Fab signal (phage binding ELISA) [1]: 1.92; Anti-CD28 Fab signal in the presence of CD28 (phage binding ELISA) [2]: 0.08
TCAAGAVWGWPLCF (peptide, not shown: large carriers, Clonal phage of the Peptide-92 optimisation library, tested as crude phage supernatant) [Phage-1486]	0.06	1.73			
TCAAGATYPWPSCL (peptide, not shown: large carriers, Clonal phage of the Peptide-92 optimisation library, tested as crude phage supernatant) [Phage-1485]	0.05	1.73			

Binder	Anti-CD28 Fab signal in the presence of CD28 [3]	Anti-CD28 Fab (SEQ ID NOs: 696, 697) signal [4]	Phage binding ELISA, Anti-CD28 Fab signal in the presence of CD28 [5]	Phage binding ELISA, Anti-CD28 Fab signal [6]	further results
TCSAGAMWTWPYCF (Tested as clonal phage supernatant; not shown: fused to the pIII filament of the bacteriophage) [Phage-1436 (peptide-92 library clone, SEQ ID NO: 1732)]					Anti-CD28 Fab signal (phage binding ELISA) [1]: 1.93; Anti-CD28 Fab signal in the presence of CD28 (phage binding ELISA) [2]: 0.08
TCSAGATYAWPACY (tested as crude clonal phage supernatant) [Phage-1449 peptide (SEQ ID NO: 1745)]			0.14	1.84	
TCSAGATWAWPSCF (Tested as clonal phage supernatant; not shown: fused to the pIII filament of the bacteriophage) [Phage-1440 (peptide-92 library clone, SEQ ID NO: 1736)]					Anti-CD28 Fab signal (phage binding ELISA) [1]: 1.92; Anti-CD28 Fab signal in the presence of CD28 (phage binding ELISA) [2]: 0.1
TCSAGATFHWPQCF (tested as crude clonal phage supernatant) [Phage-1453 peptide (SEQ ID NO: 1749)]			0.08	1.83	
MCSAGATYPWPMCL (peptide, not shown: large carriers, Clonal phage of the Peptide-92 optimisation library, tested as crude phage supernatant) [Phage-1484]	0.06	1.73			
QCAAGAMWTWPACF (peptide, not shown: large carriers, Clonal phage of the Peptide-92 optimisation library, tested as crude phage supernatant) [Phage-1483]	0.07	1.73			
WCAAVFSYSWPLCL (peptide, not shown: large carriers, cysteine pairing not given here; also: displayed as fusion to phage pIII, pIII and linker not given here, Clonal phage of the Peptide-92 optimisation library, tested as crude phage supernatant) [Phage-1479]	0.06	1.75			
SCAAGAMWPWPVCV (tested as crude clonal phage supernatant) [Phage-1459 peptide (SEQ ID NO: 1755)]			0.06	1.8	
TCSAGFSYSWPACF (tested as crude clonal phage supernatant) [Phage-1447 peptide (SEQ ID NO: 1743)]			0.07	1.86	
QCAAGASYPWPVCL (tested as crude clonal phage supernatant) [Phage-1455 peptide (SEQ ID NO: 1751)]			0.07	1.82	
TCTAGFSYNWPMCF (tested as crude clonal phage supernatant) [Phage-1448 peptide (SEQ ID NO: 1744)]			0.06	1.85	
LCRAGAMWPWPTCL (tested as crude clonal phage supernatant) [Phage-1452 peptide (SEQ ID NO: 1748)]			0.06	1.83	
SCAAVFSFPWSPCL (tested as crude clonal phage supernatant) [Phage-1446 peptide (SEQ ID NO: 1742)]			0.08	1.87	
TCSAGAHYVWPMCF (Tested as clonal phage supernatant; not shown: fused to the pIII filament of the bacteriophage) [Phage-1441 (peptide-92 library clone, SEQ ID NO: 1737)]					Anti-CD28 Fab signal (phage binding ELISA) [1]: 1.91; Anti-CD28 Fab signal in the presence of CD28 (phage binding ELISA) [2]: 0.17
TCSAGAMYPWPWCV (peptide, not shown: large carriers, cysteine pairing not given here; also: fused to phage pIII protein, pIII and linker not given here, Clonal phage of the Peptide-92 optimisation library, tested as crude phage supernatant) [Phage-1478]	0.08	1.75			
SCAAGAAYPWPACL (tested as crude clonal phage supernatant) [Phage-1460 peptide (SEQ ID NO: 1756)]			0.06	1.8	
TCAAGAAWPWPHCL (peptide, not shown: large carriers, cysteine pairing not given here; also: displayed as fusion to phage pIII, pIII and linker not given here, Clonal phage of the Peptide-92 optimisation library, tested as crude phage supernatant) [Phage-1482]	0.06	1.73			
TCSAGAHYEWPYCL (tested as crude clonal phage supernatant) [Phage-1454 peptide (SEQ ID NO: 1750)]			0.11	1.82	
SCSAGASLQLSICL (Tested as clonal phage supernatant; not shown: fused to the pIII filament of the bacteriophage) [Phage-1439 (peptide-92 library clone, SEQ ID NO: 1735)]					Anti-CD28 Fab signal (phage binding ELISA) [1]: 1.92; Anti-CD28 Fab signal in the presence of CD28 (phage binding ELISA) [2]: 0.06
TCAAGAMWQWPVCL (tested as crude clonal phage supernatant) [Phage-1457 peptide (SEQ ID NO: 1753)]			0.06	1.81	
